Measurements: patent US11723946B2, “Methods for regulating transcription of multiple genes and expression of multiple targets” (CHINA MEDICAL UNIVERSITY, priority 2014, dated 2023)

Key:
[1] = test system: NF-κB; experiment: Whole animal bioluminescent imaging, LPS-induced NF-κB/luc transgenic mice; assay type: in vivo
From the text: Mice: The NF-κB/luc transgenic mice bearing the luciferase transgene driven by two copies of the NF-kappaB regulatory elements were mated with wild-type FVB mice to generate the hybrid NF-κB/luc transgenic offspring for the experiments. Whole animal bioluminescent imaging: 15 mice with age of 6˜8 weeks were randomly divided into three groups. The group 1 was the blank group; the group 2 was control group; and the group 3 was experimental group. The mice of the group 2 and the group 3 were administration with 100 ul of […] lipopolysaccharide (LSP) solution to induce the inflammation in the mice by intraperitoneal injection (IP injection). As the blank control, the mice of group 1 were administered with 100 μl of PBS by IP injection. After the LPS-injection for 5 minutes, the mice of the group 3 were further injected with 20 μl solution that contains 0.5 mg/Kg of the present polypeptide by IP injection. In contrast, the mice of the group 2 and the […] were injected with 20 μul of water. […] For in vivo imaging mice were anesthetized with isoflurane and injected intraperitoneally with 150 mg/kg luciferin. After 10 minutes, the mice were placed face up and imaged for 1 min with the camera set at the highest sensitivity by IVIS Imaging System-200 (Series Xenogen Hopkinton, Mass.). The photons emitted from the tissues were quantified by Living Images software (Xenogen, Hopkinton, Mass.) and were shown in FIG. 4A. In the FIG. 4A, the Y-axis shown the signal strength (photons/sec) that stands for total photons diffused from the mice.

[2] = test system: IL-1β; experiment: Immunohistochemistry staining of organs, LPS-induced mice; assay type: in vivo; conditions: group 3 vs group 2 (LPS)
Method: (§1) Immunohistochemistry (IHC) would be known by an ordinary person skilled in the art. The organs were collected from the mice of the each group for paraffin embedding and histology section. The parafilm-embedded organs were cut into […] sections, deparaffinized in xylene and then rehydrated in graded alcohol. Endogenous peroxidase was quenched with 3% hydrogen peroxide in methanol for 15 mins and the nonspecific binding was blocked with 1% bovine serum albumin at room temperature for 1 hour. The blocked sections were further incubated with 50-folds diluted mouse monoclonal antibodies against p56, TNF-α or IL-1β proteins at 4° C. for 16-18 hours, respectively and then incubated with biotinylated secondary antibodies (Zymed Laboratories, South San Francisco, Calif.) that against the Fc fragment of the co-responding first antibody at room temperature for 20 minutes. Finally, the slides were incubated with avidin-biotin complex reagent and stained with 3,3′-diaminobenzidine according to manufacturer's protocol (Histostain®-Plus Kit, Zymed Laboratories, South San Francisco, Calif.).

[3] = test system: TNF-α; experiment: as above; assay type: in vivo; conditions: group 3 vs group 2 (LPS)
Method: as §1

[4] = Hepatic histology (H&E, oil red-O) in high fat diet mice; assay type: in vivo; conditions: 10 mmol/kg peritoneal injection twice weekly, 4 weeks, group 3 vs group 2
Method: (§2) 30 wild-type FVB mice were randomly divided into three groups, wherein the mice of the group 1 were the blank group that were fed with normal condition. The mice of the control group (the group 2) and the experimental group (the group 3) were fed with high fat diet. […] The mice in the group 2 and the group 3 were peritoneally injected with 100 μl of PBS.
(§3) After the administration, livers in the mice of the each group were collected for the histology sections. The hepatic histology of livers in the mice of the each group was […] for H&E staining and oil red-O staining to examined the lipid accumulation in liver, respectively. Furthermore, the product of lipid oxidation in hepatocytes was examined by IHC staining described in example 3 with antibodies against 4-hydroxynonenal ([…]) or malondialdehyde (MDA) on the hepatic tissues of the each group.

[5] = test system: 4-hydroxynonenal, malondialdehyde; experiment: IHC of lipid oxidation products in hepatic tissue, high fat diet mice; assay type: in vivo; conditions: 10 mmol/kg peritoneal injection twice weekly, 4 weeks, group 3 vs group 2
Method: as §2, §3

[6] = Fat accumulation in genetic deficient mice with massive abdominal fat; assay type: in vivo
Method: The mice were divided into control group and experimental group. […] In addition, the mice in the control group were peritoneally injections with 100 ul of PBS.
During the treatment period, the body weight and dietary intake of the mice were recorded at the regular time points. After the treatment, the gross views of whole animals were recorded by photographing. In the following, the fat pads of the mice were collected for the measurement of fat pad weight. The histological examination was performed to determine the number and size of the adipocytes in the mice of the both groups. Furthermore, the percentage of body fat was calculated according the formulation: (fat weight/body weight)×100%, and shown in table 4.

[7] = Serological and biochemical analysis in NOD mice; assay type: in vivo; conditions: 20 weeks; for Creatinine in serum: control 0.70 ± 0.05; for BUN: control 40.50 ± 4.54
Method: 23 mice were divided into four groups with different administrations for 20 weeks, wherein 6 mice of the group 1 were control mice that were daily orally administrated with 20 μl of PBS. 6 mice of the group 2 were daily orally administrated with 20 μl of 0.01 umol/kg solution that contained the present polypeptide comprising the amino acid sequence of SEQ ID No. 1. 6 mice of the group 3 were daily orally administered with 20 μl of 0.1 umol/kg solution that contained the present polypeptide comprising the amino acid sequence of SEQ ID No. 1. 5 mice of the group 4 were daily orally administrated with 20 μl of 1 umol/kg solution that contained the present polypeptide comprising the amino acid sequence of SEQ ID No. 1.
During the administration period, the survival rate, incidence of diabetes and diabetes-induced retinopathy in the each group were measured and shown in table 5. After the administration, the blood samples were collected for serological and biochemical analysis.

[8] = test system: Muscle (IGF and adipocytokine signaling pathway genes); conditions: 2.5 mmol/kg daily, 7 days
Method: (§4) The wild-type FVB mice were divided into the control group and the experimental group, wherein the mice in the experimental group were daily administered with 20 μl peptide-containing solution that contains 2.5 mmol/kg of the present peptide for 7 days. Moreover, the mice in the control group were daily administrated with 20 μl PBS solution for 7 days.
(§5) After the daily administration, the tissues of column, muscle, fat pad, liver and kidney were collected for analyzing the expression of multiple targets by system biology analysis. Herein, the altered expressions of the targets in the genome were determined by using DNA microarray which is a well-established tool for systematic biology analysis. Furthermore, the results of the DNA microarray were further categorized and analyzed by bioinformatics analysis to determine the effect and affected signaling pathways of the present polypeptide.
(§6) (1) RNA preparation: The total RNA was extracted from the tissue by using RNeasy Mini Kit (Qiagen, Valencia, Calif., USA). The amount of the extracted total RNA was measured by Beckman DU800 spectrophotometer (Beckman Coulter, Fullerton, Calif., USA). In the next step, the quality of the RNA sample with A260/A280 ratio more than 1.8 was further evaluated by Agilent 2100 bioanalyzer (Agilent Technologies, Santa Clara, Calif., USA). When with the RNA integrity number of the sample is more than 8.0, it would be analyzed by the following microarray analysis.
(§7) (2) DNA microarray analysis: The procedure of DNA microarray analysis was conducted according to the reference (Cheng, 2007). Briefly, 5 μg of total RNA was amplified by in vitro transcription using MessageAmp™ aRNA kit (Ambion). In the following, the fluorescence dye, Cy5, was chemically labeled on the amplified RNA (aRNA). After the labeling, the fluorescence labeled aRNA was hybridized with Whole Genome OneArray™ in hybridization buffer (Phalanx Biotech Group, Taiwan) on cover slide. Following the hybridization reaction at 50° C. over-night, the non-specific binding on the chip was washed by three washing steps. The washed chip was dried by centrifugation and was scanned by Axon 4000 scanner (Molecular Devices, Sunnyvale, Calif., USA) to measure the fluorescence signals. The fluorescence intensity of Cy5 on each spots was further analyzed by genepix 4.1 (Molecular Devices). First, the signals of each spot were adjusted by deducting the intensity of background. In the next step, the spots including the probes of internal controls or the spots with the signal-to-noise ratios less than 0 would be removed. The qualified spots were normalized by limma package which is belonged to R console (Smyth, 2005).

[9] = test system: Fat pad (fatty acid metabolism genes); conditions: Up-regulated, 2.5 mmol/kg daily, 7 days
Method: as §4, §5, §6, §7

[10] = experimental group vs control group, in words
[11] = Group 2: 0.01 umol/kg daily oral
[12] = Group 3: 0.1 umol/kg daily oral
[13] = Adipocytokine signaling pathway, Down-regulated
[14] = IGF signaling pathway, Up-regulated

Chain of IL-1β (P10749 118-269): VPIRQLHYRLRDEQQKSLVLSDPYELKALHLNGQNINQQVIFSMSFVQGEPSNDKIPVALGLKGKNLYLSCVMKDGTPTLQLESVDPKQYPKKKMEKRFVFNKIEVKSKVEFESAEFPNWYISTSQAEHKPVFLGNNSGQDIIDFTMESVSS

B1: present polypeptide: polypeptide comprising the amino acid sequence of SEQ ID No. 1; made by peptide synthesis, recombinant expression or extraction from Momordica charantia (peptide, listed as Artificial synthsis)
chain: SRCQGKSSWPQLVGSTGAAAKAWIERENPRVRAVIIKVGSGATKDFRCDRVRVWVTERGIVARPPTIG
[1]; group 3 (LPS + 0.5 mg/Kg polypeptide IP)
  suppression of luminescent intensity: about 38%
[1]; group 3: LPS + 0.5 mg/Kg polypeptide IP, 4 hours after injection
  average of luciferin value: 19.82×10^7 photons/sec
[2]
  brown zone (active IL-1β signal) in tissue, IHC: obviously less than the group 2
[3]
  brown zone (active TNF-α signal) in tissue, IHC: obviously less than the group 2
[4]
  lipid accumulation in the liver: less lipid accumulation
[5]
  products of lipid oxidation (HNE, MDA) in hepatic tissue: obviously decreased
[6]; Experimental mice, 2.5 nmol/kg peritoneal twice a week, 4 weeks, control 2.53 ± 0.19
  Fat weight: 1.90 ± 0.41 g
[6]; Experimental mice, 2.5 nmol/kg peritoneal twice a week, 4 weeks, control 71.95 ± 6.25
  Body weight at end point: 72.54 ± 7.24 g
[6]; Experimental mice, (fat weight/body weight)×100%, control 3.68 ± 0.16
  Body fat: 2.74 ± 0.21%
[6]; [10]
  fat weight compared with control group: obviously decreased
  percentage of body fat compared with control group: obviously decreased
[7]; [11]
  Creatinine in serum: 0.64 ± 0.12 mg/dL
  BUN: 37.38 ± 2.77 mg/dL
[7]; [12]
  Creatinine in serum: 0.69 ± 0.06 mg/dL
  BUN: 38.50 ± 4.69 mg/dL
[7]; Group 4: 1 umol/kg daily oral
  Creatinine in serum: 0.69 ± 0.06 mg/dL
  BUN: 35.88 ± 6.33 mg/dL
[8]; [13]
  Fold, Acsl1: 4.56 folds
  Fold, Akt1: 1.57 folds
  Fold, Cd36: 2.42 folds
  Fold, Nfkbia: 2.55 folds
  Fold, Prkag1: 1.93 folds
  Fold, Ptpn11: 2.31 folds
  Fold, Stat3: 1.55 folds
[8]; [14]
  Fold, Adprt1: Up-regulated 1.9 folds
  Fold, Cabin1: Up-regulated 2.4 folds
  Fold, Igfbp5: Up-regulated 1.9 folds
  Fold, Irs1: Up-regulated 3.7 folds
  Fold, Map2k2: Up-regulated 1.6 folds
  Fold, Mdk: Up-regulated 3.4 folds
  Fold, Mmp13: Up-regulated 3.0 folds
  Fold, Myh1: Up-regulated 3.2 folds
  Fold, Nfatc3: Up-regulated 1.5 folds
  Fold, Pik3r1: Up-regulated 1.8 folds
  Fold, Rps6kb1: Up-regulated 4.7 folds
  Fold, Spp1: Up-regulated 3.6 folds
  Fold, Twist 1: Up-regulated 2.1 folds
  Fold, Vegfa: Up-regulated 1.5 folds
[9]
  Fold, Acox1: Up-regulated 2.0 folds
  Fold, Acsl4: Up-regulated 5.1 folds
  Fold, Cpt1a: Up-regulated 3.1 folds
  Fold, Cpt2: Up-regulated 1.5 folds
  Fold, Hsd17b4: Up-regulated 1.7 folds
  Fold, Sirt1: Up-regulated 3.0 folds
